Data on three molecules can be found in paper PMC4881023, “SALM5 trans-synaptically interacts with LAR-RPTPs in a splicing-dependent manner to regulate synapse development” (Scientific Reports, 2016).

Assay [1] concerns the target SALM5 (untagged) (not stated (mouse and human SALM5 are named for other constructs)) (UniProt Q8BXA0). Briefly: quantitative cell-surface binding assay (HRP anti-human Fc, Scatchard analysis); apparent; SALM5 (untagged)-expressing HEK293T cells in 96-well plates, fixed, incubated with increasing concentrations of LAR-Ecto-Fc for 1 hour, HRP-conjugated anti-human-Fc, TMB colour reaction.

The target in assay [2] is T1, LAR-Ig (Ig1-3)-Fc of the BLI (human, UniProt P10586 30-318).
T1 chain: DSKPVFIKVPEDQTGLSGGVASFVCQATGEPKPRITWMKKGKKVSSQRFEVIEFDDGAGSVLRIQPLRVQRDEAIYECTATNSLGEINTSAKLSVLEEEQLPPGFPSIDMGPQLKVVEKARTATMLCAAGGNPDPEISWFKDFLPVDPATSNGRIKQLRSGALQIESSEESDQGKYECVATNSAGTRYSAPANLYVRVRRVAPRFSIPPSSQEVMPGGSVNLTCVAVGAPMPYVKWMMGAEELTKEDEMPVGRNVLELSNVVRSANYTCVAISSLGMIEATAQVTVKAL
Briefly: BLI; BLItz; 10 μM LAR-Ig (Ig1-3)-Fc or LAR-FN12-Fc immobilised on protein A biosensors for 120 s, hybrid SALM5-Ecto as analyte at three concentrations; 20 mM HEPES, 50 mM NaCl, pH 7.0; global fit. Particulars: both partners purified. In general terms: BLI is a label-free optical method that tracks binding on a fibre tip over time.

The target in a further assay is T2, hySALM5-Ecto-Fc ( | human, UniProt Q96NI6 59-374).
T2 chain: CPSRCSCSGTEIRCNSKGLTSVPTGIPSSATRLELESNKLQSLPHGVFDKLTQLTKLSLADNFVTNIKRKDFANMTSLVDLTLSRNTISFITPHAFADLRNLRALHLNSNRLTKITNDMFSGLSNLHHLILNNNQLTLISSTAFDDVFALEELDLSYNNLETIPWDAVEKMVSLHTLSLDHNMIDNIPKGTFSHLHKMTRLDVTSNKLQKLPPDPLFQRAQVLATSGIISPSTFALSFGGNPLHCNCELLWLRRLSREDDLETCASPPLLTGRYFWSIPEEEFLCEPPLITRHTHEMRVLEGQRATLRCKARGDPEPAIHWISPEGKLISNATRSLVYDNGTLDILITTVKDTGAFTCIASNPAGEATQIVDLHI
Briefly: BLI; BLItz; hySALM5-Ecto-Fc pre-bound to protein A biosensors, LAR-Ig-FN12 as analyte at three concentrations; 20 mM HEPES, 50 mM NaCl, pH 7.0; global fit. Particulars: both partners purified.

Sequence of SALM5 (untagged) (not stated (mouse and human SALM5 are named for other constructs)) (Q8BXA0 18-719): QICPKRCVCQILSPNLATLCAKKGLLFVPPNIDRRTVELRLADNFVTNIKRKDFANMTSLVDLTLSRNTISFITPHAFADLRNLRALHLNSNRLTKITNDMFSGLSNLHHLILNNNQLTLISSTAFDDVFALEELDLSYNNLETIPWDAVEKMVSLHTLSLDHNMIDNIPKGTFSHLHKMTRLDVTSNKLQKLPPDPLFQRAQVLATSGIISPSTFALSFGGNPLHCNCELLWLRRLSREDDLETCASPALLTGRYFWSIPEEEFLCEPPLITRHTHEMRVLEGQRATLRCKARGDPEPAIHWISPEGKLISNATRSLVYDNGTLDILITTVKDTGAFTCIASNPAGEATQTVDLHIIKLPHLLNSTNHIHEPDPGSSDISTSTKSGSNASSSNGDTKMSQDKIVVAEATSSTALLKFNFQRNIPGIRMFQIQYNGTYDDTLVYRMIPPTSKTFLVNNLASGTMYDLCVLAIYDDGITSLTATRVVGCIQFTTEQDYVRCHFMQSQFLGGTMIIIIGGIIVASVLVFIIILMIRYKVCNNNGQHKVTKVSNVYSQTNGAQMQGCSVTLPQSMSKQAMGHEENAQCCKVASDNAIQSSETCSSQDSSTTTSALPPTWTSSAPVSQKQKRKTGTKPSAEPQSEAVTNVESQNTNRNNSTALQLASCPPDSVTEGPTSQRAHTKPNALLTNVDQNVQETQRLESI

Take “LAR-Ecto-Fc (meA^− and meB^−) (from UniProt P10586 30-1263) (Fc fusion)”: the Kd in assay [1] stood at 0.00896 µM.

B1: hySALM5-Ecto (hybrid SALM5, LRR + Ig domains), tag cleaved (domain or fragment)
chain: T2 chain
modifications: VLRB.61 printed as M1-L82; signal peptide (1-23) taken as removed on secretion; hagfish accession not among the candidates; LVPR residue left by thrombin cleavage omitted / A-B- form taken as stated …
B1 yielded a Kd in assay [2] of 16.6 µM.

B2: LAR-Ig-FN12 (Ig1-3-FNIII12, aa 27A–513A) (domain or fragment)
chain: AHGDSKPVFIKVPEDQTGLSGGVASFVCQATGEPKPRITWMKKGKKVSSQRFEVIEFDDGAGSVLRIQPLRVQRDEAIYECTATNSLGEINTSAKLSVLEEEQLPPGFPSIDMGPQLKVVEKARTATMLCAAGGNPDPEISWFKDFLPVDPATSNGRIKQLRSGALQIESSEESDQGKYECVATNSAGTRYSAPANLYVRVRRVAPRFSIPPSSQEVMPGGSVNLTCVAVGAPMPYVKWMMGAEELTKEDEMPVGRNVLELSNVVRSANYTCVAISSLGMIEATAQVTVKALPKPPIDLVVTETTATSVTLTWDSGNSEPVTYYGIQYRAAGTEGPFQEVDGVATTRYSIGGLSPFSEYAFRVLAVNSIGRGPPSEAVRARTGEQAPSSPPRRVQARMLSASTMLVQWEPPEEPNGLVRGYRVYYTPDSRRPPNAWHKHNTDAGLLTTVGSLLPGITYSLRVLAFTAVGDGPPSPTIQVKTQQGVPA
modifications: splice form not given; A-B- form taken because the printed limits fit the P10586 numbering (no meA, no meB) / C-terminal Fc carrier omitted (the Fc would dimerise the chain); VLRB.61 signal peptide
B2: in the assay with hySALM5-Ecto-Fc, the Kd amounted to 38.5 µM.
